From PMC11277083, “A Natural Bioactive Peptide from Pinctada fucata Pearls Can Be Used as a Potential Inhibitor of the Interaction between SARS-CoV-2 and ACE2 against COVID-19” (International Journal of Molecular Sciences, 2024) come the findings set out here.

In this experiment the target is recombinant ACE2 protein (coated plate of the RayBio COVID-19 Spike ACE2 binding assay kit II) (UniProt P0DTC2). Kind of experiment: ELISA; […] ([…], in PBS), 2 h at room temperature; […].

In the case of KKCH peptide, the IC50 stood at 413 µM.
